The values below come from doi:10.1101/2022.07.08.499339 (bioRxiv, 2022).

Data set [1] deals with hMIGA2_(long)-6xhis (human) (UniProt Q7L4E1). Nature of the data set: native MS.
The data set “SEC” concerns the molecule itself. Nature of the data set: SEC. (SEC sorts molecules by how far they enter the pores of the column.)

One may read the stoichiometry N as the number of molecules, sites or subunits per partner or assembly. For “hMIGA2_(long)-6xhis (from UniProt Q7L4E1 170-593) (domain or fragment)”, in data set [1], the stoichiometry N turned out to be 2.

B1: CeMIGA2_(long), C. elegans MIGA (106-496) (domain or fragment, UniProt Q21096 106-496, looked up)
chain: SMNPIEADITSGQELCTELRKTIEKVHHNLEMVKNRSSKDMERSIKIEGILKGLKQVEDEIVLLVPQMEDFRDDNMEFYSVSGGSGYAGSVRTGRSRTLSVLSDDSFRSAVEEFACDIDDIDFVSDAANLDKNELRFLDEGMQAALNGEVKYRKSRMEFCKCDSETDFAAKLYCVRQALTNALKDEHKRVWLAKCGRTLLADFIRHTKQDPVKFFNAYDEMLEYVSNDRNEEQLRQDVEGRGVCETGFYDVAIDFIILDAFEDLKSPPSAVYSVTKNYFMSMSMKYSTLNTIIWSIIKSKRQRLKNPDGFIAKFYNISETVMPAITLGFLGTDERLGELCQYFKEQVVQFVLDVFNTQKVCYRSLEEMSEDVWIVMRNRLEAVQTRMSNEL
As for B1, the “stoichiometry N” value in the data set “SEC” stood at 2.
